{"source": "paper PMC4176181", "about": "“Multifaceted role of the Topo IIIα–RMI1-RMI2 complex and DNA2 in the BLM-dependent pathway of DNA break end resection”", "key": {"Topo IIIα [1]": {"target": "T1, Topo IIIα (Homo sapiens, UniProt Q13472 1-1001)", "T1 sequence": "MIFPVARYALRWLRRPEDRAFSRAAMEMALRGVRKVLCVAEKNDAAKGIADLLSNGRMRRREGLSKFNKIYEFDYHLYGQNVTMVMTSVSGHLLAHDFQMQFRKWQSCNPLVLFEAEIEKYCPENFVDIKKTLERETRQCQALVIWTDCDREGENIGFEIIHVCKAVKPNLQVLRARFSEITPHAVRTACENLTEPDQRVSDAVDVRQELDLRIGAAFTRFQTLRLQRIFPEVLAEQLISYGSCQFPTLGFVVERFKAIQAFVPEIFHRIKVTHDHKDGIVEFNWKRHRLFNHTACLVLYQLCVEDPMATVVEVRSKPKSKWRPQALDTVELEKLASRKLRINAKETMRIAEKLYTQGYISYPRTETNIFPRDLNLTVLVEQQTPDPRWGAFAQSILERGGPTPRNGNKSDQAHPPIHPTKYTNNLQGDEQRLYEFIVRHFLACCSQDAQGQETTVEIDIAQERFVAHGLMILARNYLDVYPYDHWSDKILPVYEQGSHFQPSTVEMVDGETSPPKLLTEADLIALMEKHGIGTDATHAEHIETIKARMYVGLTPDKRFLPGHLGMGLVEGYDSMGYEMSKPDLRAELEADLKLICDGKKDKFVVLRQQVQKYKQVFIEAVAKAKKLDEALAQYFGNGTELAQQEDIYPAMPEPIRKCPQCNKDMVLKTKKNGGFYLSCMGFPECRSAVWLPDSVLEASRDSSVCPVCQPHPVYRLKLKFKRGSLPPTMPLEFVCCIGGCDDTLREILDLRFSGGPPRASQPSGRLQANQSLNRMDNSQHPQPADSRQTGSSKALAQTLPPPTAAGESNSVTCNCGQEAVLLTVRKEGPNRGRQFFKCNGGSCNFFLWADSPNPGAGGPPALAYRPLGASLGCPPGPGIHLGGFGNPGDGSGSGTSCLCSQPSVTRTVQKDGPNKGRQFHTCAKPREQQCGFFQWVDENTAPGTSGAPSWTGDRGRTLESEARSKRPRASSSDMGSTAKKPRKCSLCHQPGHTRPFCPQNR", "test": "EMSA; 25-100 nM protein; two discrete complexes; EMSA: 35 mM Tris-HCl pH 7.5, 1 mM DTT, 100 ng/μl BSA, 2 mM MgCl2, 100 mM NaCl, 25°C, 20 min, 5 nM DNA ends (Mg2+ and ATP omitted in Figure 3B)", "details": "protein: recombinant; label: 32P; blunt"}, "BLM;DNA2-D277A": {"target": "BLM;DNA2-D277A (Homo sapiens;Homo sapiens, UniProt P54132;P51530 1-1417;1-1060, |D277A)", "sequence (P54132 whole entry, chain 1 of 2)": "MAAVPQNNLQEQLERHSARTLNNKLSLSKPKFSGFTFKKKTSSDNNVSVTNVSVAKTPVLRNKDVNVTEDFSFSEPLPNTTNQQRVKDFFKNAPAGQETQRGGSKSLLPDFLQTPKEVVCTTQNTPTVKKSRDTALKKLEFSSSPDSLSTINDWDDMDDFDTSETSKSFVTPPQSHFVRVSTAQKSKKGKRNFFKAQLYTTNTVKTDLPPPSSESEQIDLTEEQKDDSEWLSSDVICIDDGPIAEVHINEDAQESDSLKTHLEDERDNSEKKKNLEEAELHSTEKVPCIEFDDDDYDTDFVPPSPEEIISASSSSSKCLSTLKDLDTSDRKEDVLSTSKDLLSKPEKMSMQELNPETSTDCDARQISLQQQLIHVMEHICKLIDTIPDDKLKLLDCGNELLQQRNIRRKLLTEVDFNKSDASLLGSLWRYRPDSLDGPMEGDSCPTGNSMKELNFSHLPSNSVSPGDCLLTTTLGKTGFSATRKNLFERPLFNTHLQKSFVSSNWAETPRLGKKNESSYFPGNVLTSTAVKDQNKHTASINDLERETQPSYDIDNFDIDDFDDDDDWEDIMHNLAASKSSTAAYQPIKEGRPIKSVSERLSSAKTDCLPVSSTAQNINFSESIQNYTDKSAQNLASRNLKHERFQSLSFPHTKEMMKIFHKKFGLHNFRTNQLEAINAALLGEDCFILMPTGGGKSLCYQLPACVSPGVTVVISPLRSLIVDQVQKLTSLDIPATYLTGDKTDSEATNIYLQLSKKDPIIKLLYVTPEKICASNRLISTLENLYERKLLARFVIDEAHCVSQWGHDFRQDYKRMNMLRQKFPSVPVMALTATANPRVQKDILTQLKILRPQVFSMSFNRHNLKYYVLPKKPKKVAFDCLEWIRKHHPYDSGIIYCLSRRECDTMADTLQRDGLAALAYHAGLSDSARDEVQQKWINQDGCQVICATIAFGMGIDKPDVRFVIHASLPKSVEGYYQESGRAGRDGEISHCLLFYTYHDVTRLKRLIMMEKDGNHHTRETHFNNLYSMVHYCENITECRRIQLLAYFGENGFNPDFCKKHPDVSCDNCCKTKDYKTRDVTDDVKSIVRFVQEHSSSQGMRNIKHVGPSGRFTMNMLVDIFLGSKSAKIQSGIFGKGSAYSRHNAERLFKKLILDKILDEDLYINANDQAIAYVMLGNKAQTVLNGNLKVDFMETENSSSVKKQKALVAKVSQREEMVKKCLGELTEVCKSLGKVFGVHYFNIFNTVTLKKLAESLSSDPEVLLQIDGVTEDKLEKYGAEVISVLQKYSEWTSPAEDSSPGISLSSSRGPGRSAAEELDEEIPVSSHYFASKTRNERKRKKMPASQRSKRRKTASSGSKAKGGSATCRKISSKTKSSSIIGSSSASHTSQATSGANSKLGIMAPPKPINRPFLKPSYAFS", "sequence (P51530 whole entry D277A, chain 2 of 2)": "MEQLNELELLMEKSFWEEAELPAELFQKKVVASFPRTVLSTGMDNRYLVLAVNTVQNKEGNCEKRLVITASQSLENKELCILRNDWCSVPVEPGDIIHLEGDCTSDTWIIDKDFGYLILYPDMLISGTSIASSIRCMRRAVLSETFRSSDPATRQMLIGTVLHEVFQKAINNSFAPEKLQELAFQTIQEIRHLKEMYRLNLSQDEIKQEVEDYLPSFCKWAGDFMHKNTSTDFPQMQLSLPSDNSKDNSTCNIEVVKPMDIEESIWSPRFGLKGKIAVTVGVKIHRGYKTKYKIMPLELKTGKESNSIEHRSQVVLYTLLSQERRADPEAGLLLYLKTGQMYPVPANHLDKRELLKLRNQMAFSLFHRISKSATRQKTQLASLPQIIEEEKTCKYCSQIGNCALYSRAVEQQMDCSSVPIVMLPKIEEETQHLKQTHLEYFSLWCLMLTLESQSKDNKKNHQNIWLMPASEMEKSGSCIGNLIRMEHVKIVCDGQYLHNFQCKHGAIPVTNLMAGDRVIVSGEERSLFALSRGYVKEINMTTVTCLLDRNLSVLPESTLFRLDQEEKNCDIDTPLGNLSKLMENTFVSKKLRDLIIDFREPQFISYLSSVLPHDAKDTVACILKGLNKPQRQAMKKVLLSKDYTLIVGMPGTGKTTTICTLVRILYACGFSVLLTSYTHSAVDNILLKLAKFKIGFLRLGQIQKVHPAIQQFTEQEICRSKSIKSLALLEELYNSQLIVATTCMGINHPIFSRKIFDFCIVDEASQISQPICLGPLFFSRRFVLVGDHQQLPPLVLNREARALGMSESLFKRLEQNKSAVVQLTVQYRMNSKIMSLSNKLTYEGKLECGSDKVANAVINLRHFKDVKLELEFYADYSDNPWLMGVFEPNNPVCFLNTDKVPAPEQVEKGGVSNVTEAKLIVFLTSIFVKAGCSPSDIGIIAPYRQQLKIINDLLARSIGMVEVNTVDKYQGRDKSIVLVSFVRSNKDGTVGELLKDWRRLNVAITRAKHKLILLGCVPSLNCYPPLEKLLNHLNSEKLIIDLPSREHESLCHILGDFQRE", "test": "EMSA; 7.5-15 nM BLM with 10 or 20 nM DNA2-D277A; binding enhanced over BLM alone; no ATP, no Mg2+; EMSA: 35 mM Tris-HCl pH 7.5, 1 mM DTT, 100 ng/μl BSA, 2 mM MgCl2, 100 mM NaCl, 25°C, 20 min, 5 nM DNA ends (Mg2+ and ATP omitted in Figure 3B)", "details": "protein: recombinant;recombinant; copies: 1;1; label: 32P; blunt"}, "RMI1-RMI2": {"target": "T2, RMI1-RMI2 (Homo sapiens, UniProt Q9H9A7;Q96E14 1-625;1-147)", "T2 sequence 1": "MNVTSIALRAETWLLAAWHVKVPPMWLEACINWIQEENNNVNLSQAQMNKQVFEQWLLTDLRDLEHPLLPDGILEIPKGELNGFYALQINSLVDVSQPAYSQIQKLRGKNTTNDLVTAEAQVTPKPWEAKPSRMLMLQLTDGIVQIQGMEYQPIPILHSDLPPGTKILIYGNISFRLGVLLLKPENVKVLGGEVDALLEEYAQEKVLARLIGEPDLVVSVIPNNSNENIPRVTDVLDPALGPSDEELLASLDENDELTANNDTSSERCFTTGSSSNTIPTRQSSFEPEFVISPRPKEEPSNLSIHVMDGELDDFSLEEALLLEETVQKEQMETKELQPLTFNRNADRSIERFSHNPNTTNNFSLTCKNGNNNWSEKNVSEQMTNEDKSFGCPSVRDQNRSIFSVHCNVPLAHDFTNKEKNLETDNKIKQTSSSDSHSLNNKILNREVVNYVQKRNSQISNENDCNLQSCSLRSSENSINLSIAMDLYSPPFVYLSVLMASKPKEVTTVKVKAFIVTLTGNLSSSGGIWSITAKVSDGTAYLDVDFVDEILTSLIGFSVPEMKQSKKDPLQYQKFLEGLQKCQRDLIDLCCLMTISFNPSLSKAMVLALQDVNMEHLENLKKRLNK", "T2 sequence 2": "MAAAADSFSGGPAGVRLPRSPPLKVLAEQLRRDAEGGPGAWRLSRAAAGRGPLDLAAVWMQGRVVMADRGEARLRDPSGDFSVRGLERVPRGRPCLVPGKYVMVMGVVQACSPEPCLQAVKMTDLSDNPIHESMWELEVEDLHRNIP", "test": "EMSA; 25-100 nM protein; EMSA: 35 mM Tris-HCl pH 7.5, 1 mM DTT, 100 ng/μl BSA, 2 mM MgCl2, 100 mM NaCl, 25°C, 20 min, 5 nM DNA ends (Mg2+ and ATP omitted in Figure 3B)", "details": "protein: recombinant; copies: 1;1; label: 32P; blunt"}, "Topo IIIα [2]": {"target": "T1, Topo IIIα", "test": "EMSA; 25-100 nM protein; streptavidin on one end; shifted efficiently; EMSA: 35 mM Tris-HCl pH 7.5, 1 mM DTT, 100 ng/μl BSA, 2 mM MgCl2, 100 mM NaCl, 25°C, 20 min, 5 nM DNA ends (Mg2+ and ATP omitted in Figure 3B)", "details": "protein: recombinant; label: 32P; blunt"}}, "data": [{"binder": "80-mer dsDNA (dsDNA) DNA 1: TTGATAAGAGGTCATTTGAATTCATGGCTTAGAGCTTAATTGCTGAATCTGGTGCTGGGATCCAACATGTTTTAAATATG DNA 2: CATATTTAAAACATGTTGGATCCCAGCACCAGATTCAGCAATTAAGCTCTAAGCCATGAATTCAAATGACCTCTTATCAA", "values": [{"measurement": "binding result", "setting": "Topo IIIα [1]", "result": "binds"}, {"measurement": "binding result", "setting": "BLM;DNA2-D277A", "result": "binds"}, {"measurement": "binding result", "setting": "RMI1-RMI2", "result": "no binding"}]}, {"binder": "80-mer dsDNA, one end blocked by biotin-streptavidin (dsDNA, 5' biotin on one strand (PSOL7475 or PSOL6214; which one not stated), streptavidin bound) DNA 1: TTGATAAGAGGTCATTTGAATTCATGGCTTAGAGCTTAATTGCTGAATCTGGTGCTGGGATCCAACATGTTTTAAATATG DNA 2: CATATTTAAAACATGTTGGATCCCAGCACCAGATTCAGCAATTAAGCTCTAAGCCATGAATTCAAATGACCTCTTATCAA", "values": [{"measurement": "binding result", "setting": "Topo IIIα [2]", "result": "binds"}]}]}
